Results published in patent US20110190196A1 (University of California, published 2011).
Read-outs that look alike come from different tables or passages of the source.

Assays:
Experiment in all cases: cell-based or functional assay
[1] = molecular target: T1, ATP-binding cassette transporter A1 (ABCA1) (UniProt P41233 1-2261, limits assumed)
[2] = molecular target: T1, ATP-binding cassette transporter A1 …; remark: listed apart in the source
[3] = molecular target: T1, ATP-binding cassette transporter A1 …; remark: listed apart in the source
[4] = molecular target: T1, ATP-binding cassette transporter A1 …; remark: listed apart in the source
[5] = molecular target: T1, ATP-binding cassette transporter A1 …; remark: listed apart in the source
[6] = molecular target: T1, ATP-binding cassette transporter A1 …; remark: listed apart in the source

T1 sequence (P41233 whole entry): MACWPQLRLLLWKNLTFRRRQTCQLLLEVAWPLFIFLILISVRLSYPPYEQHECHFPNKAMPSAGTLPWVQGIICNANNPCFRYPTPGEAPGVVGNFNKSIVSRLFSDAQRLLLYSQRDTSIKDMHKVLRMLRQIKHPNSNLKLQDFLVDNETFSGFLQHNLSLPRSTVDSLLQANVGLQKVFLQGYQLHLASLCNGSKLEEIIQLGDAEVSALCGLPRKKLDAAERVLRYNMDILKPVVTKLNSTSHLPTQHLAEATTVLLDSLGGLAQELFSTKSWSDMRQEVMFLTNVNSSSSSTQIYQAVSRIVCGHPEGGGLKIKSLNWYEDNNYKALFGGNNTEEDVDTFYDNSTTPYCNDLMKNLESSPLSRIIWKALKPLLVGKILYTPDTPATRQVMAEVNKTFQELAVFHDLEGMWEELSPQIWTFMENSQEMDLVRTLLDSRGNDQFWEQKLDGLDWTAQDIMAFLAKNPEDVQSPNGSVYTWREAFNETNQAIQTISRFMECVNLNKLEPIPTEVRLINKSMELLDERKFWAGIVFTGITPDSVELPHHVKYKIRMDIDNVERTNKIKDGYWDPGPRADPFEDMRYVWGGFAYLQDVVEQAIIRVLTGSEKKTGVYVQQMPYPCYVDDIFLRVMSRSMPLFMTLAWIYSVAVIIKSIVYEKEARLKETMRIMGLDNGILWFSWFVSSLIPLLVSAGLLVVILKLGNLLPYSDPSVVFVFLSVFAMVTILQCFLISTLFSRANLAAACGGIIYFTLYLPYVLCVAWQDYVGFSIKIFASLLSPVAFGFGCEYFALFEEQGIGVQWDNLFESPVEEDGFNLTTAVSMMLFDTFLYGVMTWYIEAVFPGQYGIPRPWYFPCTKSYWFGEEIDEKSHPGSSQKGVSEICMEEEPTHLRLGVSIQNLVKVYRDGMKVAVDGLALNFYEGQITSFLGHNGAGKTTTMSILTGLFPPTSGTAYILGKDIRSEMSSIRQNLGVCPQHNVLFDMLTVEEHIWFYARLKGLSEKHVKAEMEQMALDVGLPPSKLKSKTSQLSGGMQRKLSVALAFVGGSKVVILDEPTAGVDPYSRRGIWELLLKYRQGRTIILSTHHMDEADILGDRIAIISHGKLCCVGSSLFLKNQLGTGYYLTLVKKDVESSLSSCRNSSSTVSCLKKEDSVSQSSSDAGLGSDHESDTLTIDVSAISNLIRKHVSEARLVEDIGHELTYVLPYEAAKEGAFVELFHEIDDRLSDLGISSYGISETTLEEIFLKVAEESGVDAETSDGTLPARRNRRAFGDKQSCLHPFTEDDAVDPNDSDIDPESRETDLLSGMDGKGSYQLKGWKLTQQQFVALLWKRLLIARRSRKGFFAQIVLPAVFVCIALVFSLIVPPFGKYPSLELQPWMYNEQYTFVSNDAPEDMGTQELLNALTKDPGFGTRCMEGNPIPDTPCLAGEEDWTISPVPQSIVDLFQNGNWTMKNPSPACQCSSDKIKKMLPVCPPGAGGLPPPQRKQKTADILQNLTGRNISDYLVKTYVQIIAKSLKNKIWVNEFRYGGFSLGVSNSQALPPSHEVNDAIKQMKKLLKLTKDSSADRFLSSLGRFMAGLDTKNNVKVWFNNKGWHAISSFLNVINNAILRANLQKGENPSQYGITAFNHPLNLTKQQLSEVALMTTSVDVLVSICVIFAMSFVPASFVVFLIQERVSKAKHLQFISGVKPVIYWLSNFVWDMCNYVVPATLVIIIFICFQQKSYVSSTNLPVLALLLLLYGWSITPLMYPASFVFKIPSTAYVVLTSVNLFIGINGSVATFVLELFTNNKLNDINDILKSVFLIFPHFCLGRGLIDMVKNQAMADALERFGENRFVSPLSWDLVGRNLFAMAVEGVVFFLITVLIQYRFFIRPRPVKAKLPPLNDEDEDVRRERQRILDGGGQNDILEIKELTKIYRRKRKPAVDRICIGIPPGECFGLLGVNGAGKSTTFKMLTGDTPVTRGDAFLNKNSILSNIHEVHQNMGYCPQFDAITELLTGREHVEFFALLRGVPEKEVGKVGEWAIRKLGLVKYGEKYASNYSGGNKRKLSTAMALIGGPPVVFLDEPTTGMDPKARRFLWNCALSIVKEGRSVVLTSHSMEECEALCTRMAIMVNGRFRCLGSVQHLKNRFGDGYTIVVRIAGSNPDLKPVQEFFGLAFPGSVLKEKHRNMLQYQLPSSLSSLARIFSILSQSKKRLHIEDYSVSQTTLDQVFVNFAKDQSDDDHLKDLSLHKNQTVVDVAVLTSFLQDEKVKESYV

| % cholesterol efflux/4 hours at 0.1 µg/ml [1] | % cholesterol efflux/4 hours at 0.3 µg/ml [1] | % cholesterol efflux/4 hours at 1.0 µg/ml [1] | % cholesterol efflux/4 hours at 3.0 µg/ml [1] | % cholesterol efflux/4 hours at 10 µg/ml [1] | % cholesterol efflux/4 hours at 30 µg/ml [1] | % cholesterol efflux/8 hours, +cAMP [2] | % cholesterol efflux/8 hours, -cAMP [2] | % cholesterol efflux/4 hours at 0.1 µg/ml [5] | % cholesterol efflux/4 hours at 0.3 µg/ml [5] | % cholesterol efflux/4 hours at 1.0 µg/ml [5] | % cholesterol efflux/4 hours at 3.0 µg/ml [5] | % cholesterol efflux/4 hours at 10 µg/ml [5] | % cholesterol efflux/4 hours at 30 µg/ml [5] | % cholesterol efflux/8 hours, No cAMP [6] | % cholesterol efflux/8 hours, Plus cAMP [6] | Binder | further results |
| --- | --- | --- | --- | --- | --- | --- | --- | --- | --- | --- | --- | --- | --- | --- | --- | --- | --- |
| 0.29% | 0.67% | 2.7% | 4.72% | 4% | 2.94% | 4.76% | 1.52% |  |  |  |  |  |  |  |  | EVREKLEAWFELFREFLERFKS [N965-4] |  |
|  |  |  |  |  |  |  |  |  |  |  |  |  |  |  |  | ELRDKLEAWLDLLRELLERL [N1154-8] | % cholesterol efflux/8 hours, No cAMP [3]: 1.31%; % cholesterol efflux/8 hours, Plus cAMP [3]: 4.38%; % cholesterol efflux/4 hours at 0.1 µg/ml [4]: 0%; % cholesterol efflux/4 hours at 0.3 µg/ml [4]: 0.48%; % cholesterol efflux/4 hours at 1.0 µg/ml [4]: 1.51%; % cholesterol efflux/4 hours at 3.0 µg/ml [4]: 3.41%; % cholesterol efflux/4 hours at 10 µg/ml [4]: 2.99%; % cholesterol efflux/4 hours at 30 µg/ml [4]: 3.02% |
|  |  |  |  |  |  |  |  | 0% | 0% | 0.02% | 1.3% | 5.7% | 5.92% | 1.27% | 6.52% | ELREKLEAWRELFEEFFARFKS [N356-2] |  |
|  |  |  |  |  |  |  |  | 0% | 0% | 0.23% | 4.71% | 5.61% | 3.5% | 0.86% | 4.16% | ELREKLEAWFEAFEEFFARFKS [N356-1] |  |
| 0.23% | 0.47% | 1.06% | 3.48% | 3.05% | 2.53% | 3.85% | 1.45% |  |  |  |  |  |  |  |  | EVREKLEAWFELFREFAERFLS [N965-3] |  |
| 0% | 0.13% | 0% | 0.44% | 2.9% | 6.01% | 9.9% | 1.75% |  |  |  |  |  |  |  |  | EVREKLEAWFEAFREFAERFKS [N965-1] |  |
| 0% | 0.13% | 0.01% | 2.23% | 5.96% | 3.98% | 6.97% | 1.28% |  |  |  |  |  |  |  |  | EVREKLEAWFELFREFAERFKS [N965-2] |  |
|  |  |  |  |  |  |  |  | 0.01% | 0.23% | 0.67% | 4.07% | 3.78% | 3.91% | 2.09% | 4.04% | ELREKLEAWFELFAEFFARF [N356-6] |  |
| 0.03% | 0.41% | 0.72% | 2.45% | 1.77% | 1.41% | 2.94% | 1.06% |  |  |  |  |  |  |  |  | ELREKLEAWRELFEEFFARFLS [N965-9] |  |
|  |  |  |  |  |  |  |  | 0% | 0.57% | 1.2% | 4.34% | 5.13% | 3.24% | 0.82% | 3.94% | ELREKLEAWFELFEEFFARFKS [N356-3] |  |
|  |  |  |  |  |  |  |  |  |  |  |  |  |  |  |  | ELRERLEAWLELLRELLERL [N1154-7] | % cholesterol efflux/8 hours, No cAMP [3]: 1.23%; % cholesterol efflux/8 hours, Plus cAMP [3]: 4.14%; % cholesterol efflux/4 hours at 0.1 µg/ml [4]: 0.23%; % cholesterol efflux/4 hours at 0.3 µg/ml [4]: 0.83%; % cholesterol efflux/4 hours at 1.0 µg/ml [4]: 2.26%; % cholesterol efflux/4 hours at 3.0 µg/ml [4]: 4.14%; % cholesterol efflux/4 hours at 10 µg/ml [4]: 3.24%; % cholesterol efflux/4 hours at 30 µg/ml [4]: 3.28% |
| 0.03% | 0.3% | 1.39% | 4.94% | 3.65% | 2.66% | 4.03% | 1.5% |  |  |  |  |  |  |  |  | EVREKLEAWFELFREFLERF [N965-7] |  |
|  |  |  |  |  |  |  |  |  |  |  |  |  |  |  |  | ELREKLEAWLELLRELLERL [N1154-6] | % cholesterol efflux/8 hours, No cAMP [3]: 1.17%; % cholesterol efflux/8 hours, Plus cAMP [3]: 4.29%; % cholesterol efflux/4 hours at 0.1 µg/ml [4]: 0.18%; % cholesterol efflux/4 hours at 0.3 µg/ml [4]: 0.46%; % cholesterol efflux/4 hours at 1.0 µg/ml [4]: 2.51%; % cholesterol efflux/4 hours at 3.0 µg/ml [4]: 4.73%; % cholesterol efflux/4 hours at 10 µg/ml [4]: 3.56%; % cholesterol efflux/4 hours at 30 µg/ml [4]: 2.71% |
|  |  |  |  |  |  |  |  | 0.15% | 0.23% | 1.17% | 4.99% | 5.49% | 5.66% | 2.78% | 7% | ELRAKLEAWFEAFAEFFARF [N356-7] |  |
|  |  |  |  |  |  |  |  | 0.14% | 0.61% | 1.89% | 5.68% | 6.06% | 6.52% | 1.72% | 4.25% | ELREKLEAWFELFAEFFARFKS [N356-4] |  |
| 0.11% | 0.49% | 1.59% | 1.98% | 2.22% | 2.75% | 6.18% | 3.15% |  |  |  |  |  |  |  |  | EVREKLEAWFELFREFLERFL [N965-6] |  |
|  |  |  |  |  |  |  |  |  |  |  |  |  |  |  |  | DLRDKLDAWLDLLRDLLDRL [N1154-9] | % cholesterol efflux/8 hours, No cAMP [3]: 1.81%; % cholesterol efflux/8 hours, Plus cAMP [3]: 4.83%; % cholesterol efflux/4 hours at 0.1 µg/ml [4]: 0.08%; % cholesterol efflux/4 hours at 0.3 µg/ml [4]: 0.43%; % cholesterol efflux/4 hours at 1.0 µg/ml [4]: 1.81%; % cholesterol efflux/4 hours at 3.0 µg/ml [4]: 3.48%; % cholesterol efflux/4 hours at 10 µg/ml [4]: 3.31%; % cholesterol efflux/4 hours at 30 µg/ml [4]: 4.35% |
|  |  |  |  |  |  |  |  | 0.02% | 0.31% | 1.59% | 4.27% | 3.86% | 3.2% | 2.18% | 5.97% | ELREKLEAWFELFAEFFARFK [N356-5] |  |
|  |  |  |  |  |  |  |  |  |  |  |  |  |  |  |  | ELRDRLEAWLDLLRELLERL [N1154-10] | % cholesterol efflux/8 hours, No cAMP [3]: 2.66%; % cholesterol efflux/8 hours, Plus cAMP [3]: 8.25%; % cholesterol efflux/4 hours at 0.1 µg/ml [4]: 0.58%; % cholesterol efflux/4 hours at 0.3 µg/ml [4]: 1%; % cholesterol efflux/4 hours at 1.0 µg/ml [4]: 2.12%; % cholesterol efflux/4 hours at 3.0 µg/ml [4]: 5.25%; % cholesterol efflux/4 hours at 10 µg/ml [4]: 4.15%; % cholesterol efflux/4 hours at 30 µg/ml [4]: 3.7% |
| 0.12% | 0.9% | 2.13% | 4.89% | 4.06% | 3.82% | 5.52% | 2.91% |  |  |  |  |  |  |  |  | EVREKLEAWFELFREFLERFLS [N965-5] |  |
|  |  |  |  |  |  |  |  |  |  |  |  |  |  |  |  | DLRDRLDAWLDLLRDLLDRL [N1154-11] | % cholesterol efflux/8 hours, No cAMP [3]: 4.2%; % cholesterol efflux/8 hours, Plus cAMP [3]: 9.04%; % cholesterol efflux/4 hours at 0.1 µg/ml [4]: 0.58%; % cholesterol efflux/4 hours at 0.3 µg/ml [4]: 1.34%; % cholesterol efflux/4 hours at 1.0 µg/ml [4]: 2.56%; % cholesterol efflux/4 hours at 3.0 µg/ml [4]: 4.84%; % cholesterol efflux/4 hours at 10 µg/ml [4]: 4.17%; % cholesterol efflux/4 hours at 30 µg/ml [4]: 5.55% |
